The results in this text go back to article PMC2137869.

Experiment [1] deals with H chains of rabbit gamma2 globulin, first Sephadex G-100 peak (Fraction H) (rabbit). Kind of experiment: sucrose density gradient ultracentrifugation.
Experiment [2] addresses H chains of non-specific rabbit gamma2 globulin (rabbit). In words: sucrose density gradient ultracentrifugation.

“And” between values parts separate entries of the source, which are not always exact repeats. Identical values can stand only once.

The substance “L chains of non-specific rabbit gamma2 globulin” displayed a per cent of the I131 label (L chains) in the >7S fraction in experiment [1] of 9 per cent. Further, the per cent of the H chains in the 7S peak in experiment [2] was 60 per cent and 70 per cent.
